In patent US20180021429A1, “ANTICANCER AGENTS OR ANTIMETASTATIC AGENTS USING FSTL1 AND COMBINATION DRUG THEREOF” (PHARMA FOODS INTERNATIONAL CO., LTD., priority 2015, published 2018):

Experiments:
[1] = test system: various human tumor cells; experiment: Proliferative capacity and invasive capacity of various human tumor cells (Example 26); assay type: cell-based; settings: antibody 5 μg/ml, particularly in a highly metastatic tumor cell line highly expressing Snail, FIG. 114A
Experimental: Specifically, the influence of the anti-FSTL1 antibody on proliferative capacity and invasive capacity was studied using various human tumor cells, regardless of the presence or absence of the expression of Snail or FSTL1. Specifically, the anti-FSTL1 antibody (#6-55, 5 μg/ml) or a control antibody (aHema: mouse chimeric anti-hemagglutinin antibody, 5 μg/ml) was added to systems in which a pancreatic cancer cell line Panc1 (ATCC #CRL-1469), Panc1-snail+ which is a Panc1 cell line forced to express Snail, a pancreatic cancer cell line MIAPaCa (ATCC #CRL-1420), a bone metastatic breast cancer cell line MDA231 (ATCC #HTB-26), and a melanoma cell line Hs294T (ATCC IHTB-140) were each cultured at 1×10^5 cells. After culture for 3 days, the number of cells per culture system was counted to evaluate the proliferative capacity of the cells. The cells (5×10^4 cells) after the counting were further inoculated to Matrigel-coated transwell chamber (Corning Inc. #354480) and cultured for 4 hours. Then, the membranes were removed, and stained and fixed with Crystal Violet fixative. Then, the number of cells that permeated the membranes was counted under a microscope to evaluate the invasive capacity of the cells.

[2] = test system: mouse breast cancer 4T1 cells; experiment: In vivo, mouse breast cancer 4T1 cell-transplanted model (Example 21); settings: BALB/c mice; intraperitoneal 10 mg/kg on days 4 and 7
Experimental: Procedures and methods of the experiment were basically performed according to Examples 17 to 20 under substantially the same conditions as in the bone metastasis model experiments of Examples 17 to 20. Drug efficacy evaluation was conducted using mouse tumor models other than Snail-positive tumor bone metastasis models. The drug efficacy of the anti-FSTL1 antibody was evaluated using cancer-bearing models of BALB/c mice different in strain from the C57BL/6 mice used in the preceding tests. Changes were made as follows. • Day 0: transplantation of tumor cells (5×10^5 cells subcutaneously & 5×10^5 cells intravenously) Days 4 and 7: intraperitoneal administration of the antibody (10 mg/kg) • Day 14: drug efficacy evaluation (subcutaneous tumor growth)
The tumor volumes of the mice were measured 4, 7, 11, and 14 days after tumor implantation.

[3] = test system: human pancreatic cancer cell line Panc1; experiment: Action of anti-FSTL1 antibody under FSTL1 stimulation (Example 26); assay type: cell-based; settings: Panc1 stimulated with FSTL1 for 3 days; antibody 5 μg/ml
Experimental: Next, in order to examine how surrounding tumor cells were changed in a cancer microenvironment by receiving FSTL1 produced by Snail/FSTL1-expressing cells, and how the anti-FSTL1 antibody acts thereon, a human pancreatic cancer cell line Panc1 confirmed to express Snail or FSTL1 only slightly was stimulated with FSTL1 for 3 days. The anti-FSTL1 antibody (#6-55, 5 μg/ml) or a control antibody (aHema, 5 μg/ml) was added to this culture system, and subsequent change in cell function was analyzed in the same way as in the preceding paragraph. […] The paper also reports that FSTL1 enhances invasive capacity.

mouse lymphoma EL4 = experiment: In vivo lymphoma model (Example 23); settings: intraperitoneal 10 mg/kg on days 3 and 6; vs control antibody
Experimental: The drug efficacy of the anti-FSTL1 antibody was evaluated according to Examples 17 to 20 using mouse lymphoma EL4, which is a cancer type having enhanced FSTL1 expression.
1. Experiment Group (n=5) • 1. Mouse lymphoma EL4+control IgG (anti-DNP mAb) • 2. Mouse lymphoma EL4+anti-FSTL1 mAb (#6-55)
• Day 0: transplantation of tumor cells (1×10^6 cells subcutaneously & 1×10^6 cells intravenously) • Day 3: intraperitoneal administration of the antibody (first dose, corresponding to 200 μg/mouse=10 mg/kg) • Day 6: intraperitoneal administration of the antibody (second dose, corresponding to 200 μg/mouse=10 mg/kg) • Day 15: various immunological assays
• Effects on the growth of subcutaneous tumor (calculation of tumor volume by tumor size measurement): measured 3, 6, and 10 days after tumor implantation

B1: #6-55: chicken-mouse chimeric anti-FSTL1 antibody clone; variable regions SEQ ID NO: 783 (light), 785 (heavy) (antibody, V domains shown)
VH: AVTLDESGGGLQTPGGALSLVCKGSGFTFTSVTMQWVRQAPGKGLEWVASVCSGSSTYYAPAVKGRATISRDNGQSTVRLQLSNLRPEDTGTYYCAKIAGRARWSCTSAAYNIDAWGHGTEVIVSS
VL: ASTQPSSVSAIPGETVKITCSGGGNNYGWYQQRSPGSAPVTVIYYNDNRPSNIPSRFSGSTSGSTSTLTITGVQADDEAIYYCGSWDSNTDSGIFGAGTTLTVL
modifications: mouse constant regions
In the case of B1, the “proliferative capacity of tumor cells” value ([1]; 3 days) is reported as “strongly suppressed”, the “invasive capacity of tumor cells” value ([1]; Matrigel-coated transwell, 4 hours) is reported as “strongly suppressed” and the “growth of 4T1 subcutaneous tumor” value [2] is reported as “significantly suppressed”. For the same molecule, the cell growth [3] was “the cell growth was reduced by the addition of the anti-FSTL1 antibody together with FSTL1”, the “invasive capacity enhanced by FSTL1” value [3] was “the action thereof is canceled” and the subcutaneous tumor growth (mouse lymphoma EL4) was “strongly suppressed”.
